Series [1] addresses T1, prostate-specific antigen (PSA) (human, UniProt P07288 25-261). Nature of the series: ELONA (direct); significant signal from 250 nM, 5 mM MgCl2; ELONA: PSA 250 ng/well adsorbed; aptamers 3.9-500 nM in PBS + 5 mM MgCl2, 1 h at 37 C; block 3% BSA + 100 nM ssDNA mix; wash PBS 0.05% Tween-20. The following applies: protein: commercial; label: biotin; stem-loops nt 4-14 and 17-30 (predicted).

In series [2] the target is T1, prostate-specific antigen (PSA). Nature of the series: ELONA (direct); significant signal from 250 nM; affinity comparable to AS2; 5 mM MgCl2; ELONA: PSA 250 ng/well adsorbed; aptamers 3.9-500 nM in PBS + 5 mM MgCl2, 1 h at 37 C; block 3% BSA + 100 nM ssDNA mix; wash PBS 0.05% Tween-20. The following applies: protein: commercial; label: biotin; 15 bp duplex at 3' end of AS2-tail, 5' overhang 32 nt of AS2-tail.

Series [3] shares this target. Nature of the series: DLS and plasmon shift (aggregate disassembly); response down to 10 fM PSA in buffer, 1 pM in filtered plasma; ELONA: PSA 250 ng/well adsorbed; aptamers 3.9-500 nM in PBS + 5 mM MgCl2, 1 h at 37 C; block 3% BSA + 100 nM ssDNA mix; wash PBS 0.05% Tween-20. Conditions: protein: commercial; label: US-AuNP; 15 bp duplex at 3' end of AS2-tail, 5' overhang 32 nt; about 8 ssDNA per particle.

Series [4] has the same target. Nature of the series: ELONA (direct); 3.9-500 nM aptamer, 5 mM MgCl2; ELONA: PSA 250 ng/well adsorbed; aptamers 3.9-500 nM in PBS + 5 mM MgCl2, 1 h at 37 C; block 3% BSA + 100 nM ssDNA mix; wash PBS 0.05% Tween-20. The following applies: protein: commercial; label: biotin.

T1 sequence (P07288 25-261): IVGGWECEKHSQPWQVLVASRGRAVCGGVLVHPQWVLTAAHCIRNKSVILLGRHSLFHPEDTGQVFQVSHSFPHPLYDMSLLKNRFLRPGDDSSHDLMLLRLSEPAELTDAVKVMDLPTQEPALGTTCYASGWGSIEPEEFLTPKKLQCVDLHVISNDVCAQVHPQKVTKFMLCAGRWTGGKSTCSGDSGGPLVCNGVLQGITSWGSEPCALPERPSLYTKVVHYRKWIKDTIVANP

Consider GGGCGGGGCGGACGAGACAGTAAGGGCTGTGGGTGTGGTG (structured_DNA, 3' biotin) [AS2-biotin], for which, in series [1], the binding result was “binds”.

B1: AS2-tail-biotin:RevAS2 (mixed)
DNA: GGGCGGGGCGGACGAGACAGTAAGGGCTGTGGGTGTGGTGTTTTTTT
?: AAAAAAACACCACAC
modifications: 3' biotin on AS2-tail
With B1, in series [2], the binding result is “binds”.

B2: AS2-tail-thio:RevAS2-thio (AS2-US-AuNP-Aggregate) (mixed)
DNA: B1 DNA
?: AAAAAAACACCACAC
modifications: 3' thiol on AS2-tail, 5' thiol on RevAS2; conjugated to gold nanoparticles
In the case of B2, the binding result in series [3] is reported as “binds”. As for ATTAAAGCTCGCCATCAAATAGC (ssDNA, biotin) [aPSA-biotin], the binding result in series [4] is “no binding”.
